# Measured values: publication PMC3608507 (Molecular Biology of the Cell, 2013)
# Read-outs that look alike come from different tables or passages of the source.
# T1: His-lasp-2 (full-length) (UniProt Q9DC07 1-270)
# T1 sequence: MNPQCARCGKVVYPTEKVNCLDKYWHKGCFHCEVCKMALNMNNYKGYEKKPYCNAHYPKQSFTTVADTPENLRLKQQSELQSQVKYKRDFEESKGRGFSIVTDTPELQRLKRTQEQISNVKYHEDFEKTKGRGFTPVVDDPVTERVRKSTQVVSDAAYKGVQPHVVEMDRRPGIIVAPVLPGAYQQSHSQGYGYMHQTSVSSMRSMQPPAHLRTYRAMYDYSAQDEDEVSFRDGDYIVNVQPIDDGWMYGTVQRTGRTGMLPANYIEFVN
# Key:
# Test in all cases: ELISA
# [1] = target: His-paxillin (full-length) (UniProt P49023 1-591)
# His-paxillin (full-length), sequence (P49023 whole entry): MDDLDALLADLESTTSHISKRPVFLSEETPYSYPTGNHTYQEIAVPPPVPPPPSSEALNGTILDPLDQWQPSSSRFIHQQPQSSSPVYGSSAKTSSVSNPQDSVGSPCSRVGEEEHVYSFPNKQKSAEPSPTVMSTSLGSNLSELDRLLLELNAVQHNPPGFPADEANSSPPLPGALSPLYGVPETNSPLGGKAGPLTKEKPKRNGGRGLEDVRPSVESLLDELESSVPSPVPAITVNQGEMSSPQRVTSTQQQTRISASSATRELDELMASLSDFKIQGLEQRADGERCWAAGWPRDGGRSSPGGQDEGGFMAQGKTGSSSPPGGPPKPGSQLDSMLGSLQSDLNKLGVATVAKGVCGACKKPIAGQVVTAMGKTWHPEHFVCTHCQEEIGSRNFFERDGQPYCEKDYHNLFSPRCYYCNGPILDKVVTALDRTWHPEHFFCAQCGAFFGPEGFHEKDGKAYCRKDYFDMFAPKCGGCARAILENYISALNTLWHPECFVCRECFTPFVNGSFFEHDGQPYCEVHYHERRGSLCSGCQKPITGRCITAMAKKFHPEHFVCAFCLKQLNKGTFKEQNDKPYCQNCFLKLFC
# His-lasp-2 (full-length) [2] = target: T1, His-lasp-2 (full-length)
# His-lasp-2 (full-length) [3] = target: T1, His-lasp-2 (full-length); remark: listed apart in the source
binder,measurement,setting,value
GST-lasp-2 (full-length) (natural protein) MNPQCARCGKVVYPTEKVNCLDKYWHKGCFHCEVCKMALNMNNYKGYEKKPYCNAHYPKQSFTTVADTPENLRLKQQSELQSQVKYKRDFEESKGRGFSIVTDTPELQRLKRTQEQISNVKYHEDFEKTKGRGFTPVVDDPVTERVRKSTQVVSDAAYKGVQPHVVEMDRRPGIIVAPVLPGAYQQSHSQGYGYMHQTSVSSMRSMQPPAHLRTYRAMYDYSAQDEDEVSFRDGDYIVNVQPIDDGWMYGTVQRTGRTGMLPANYIEFVN,Kd,[1],~20 nM
His-vinculin-tail (amino acids 840-1066) (domain or fragment) PDFPPPPPDLEQLRLTDELAPPKPPLPEGEVPPPRPPPPEEKDEEFPEQKAGEVINQPMMMAARQLHDEARKWSSKGNDIIAAAKRMALLMAEMSRLVRGGSGTKRALIQCAKDIAKASDEVTRLAKEVAKQCTDKRIRTNLLQVCERIPTISTQLKILSTVKATMLGRTNISDEESEQATEMLVHNAQNLMQSVKETVREAEAASIKIRTDAGFTLRWVRKTPWYQ,Kd,His-lasp-2 (full-length) [2],~140 nM
GST-lasp-1 (full-length) (natural protein) MNPNCARCGKIVYPTEKVNCLDKYWHKACFHCETCKMTLNMKNYKGYEKKPYCNAHYPKQSFTMVADTPENLRLKQQSELQSQVRYKEEFEKNKGKGFSVVADTPELQRIKKTQDQISNIKYHEEFEKSRMGPSGGEGVEPERREAQDSSSYRRPTEQQQPQPHHIPTSAPVYQQPQQQQMTSSYGGYKEPAAPVSIQRSAPGGGGKRYRAVYDYSAADEDEVSFQDGDTIVNVQQIDDGWMYGTVERTGDTGMLPANYVEAI,Kd,His-lasp-2 (full-length) [3],~15 nM
